Measured values from the supplement of paper PMC10724198.
± gives the standard deviation of the averaged measurements.
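Further: PSI is a weighted mean of sequencing reads over stability bins, variants kept only with over 10 reads, mCherry proximal and sfGFP distal, peptide attached via GGGS linker.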

What follows are sequences tested on Saccharomyces cerevisiae (assay: protein stability index of tFT-peptide fusion (C-terminal peptide) (PSI (0-1 scale)); higher = more stable (slower turnover)). Details: genetic background: wild type; temperature: 30 C.
Procedure: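 Multiplexed protein stability (MPS) profiling in S. cerevisiae. Random 12-aa peptides (tFT-X12 library) are fused to the C-terminus of a sfGFP-mCherry tandem fluorescent timer, after mCherry and a GGGS linker. Cells are FACS-sorted into 8 mCherry/sfGFP bins and deep-sequenced. The protein stability index (PSI) is the read-weighted bin average, scaled from 0 (unstable) to 1 (stable). Only peptides with >10 reads are reported; cells were grown at 30 °C in SC-His with glucose.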
AACNGGPMNQTR gave a protein stability index of 0.7 ± 0.086.
AAPKSGARASLW gave a protein stability index of 0.728 ± 0.084.
Sequence AAQDTRAHYRTR has a protein stability index of 0.704 ± 0.044.
For AAREVSPGNVCH, the protein stability index was 0.731 ± 0.065.
In the case of AARSEVASAAGR, the protein stability index is reported as 0.643 ± 0.016.
In the case of AASPHHPSQTAL, the protein stability index is reported as 0.6831 ± 0.0063.
With AASSDGWHTGGA the protein stability index was 0.694 ± 0.0032.
With AAVLFVHATSHE the protein stability index was 0.685 ± 0.061.
AAWLSQLNKVNV gave a protein stability index of 0.6679 ± 0.0014.
ACCPPRLAPPPL showed a protein stability index of 0.675 ± 0.016.
Work on ACGALAKMILFW yielded a protein stability index of 0.663 ± 0.059.
ACPAPPPPQLPR gave a protein stability index of 0.593 ± 0.031.
ACRLWWRRGGEG showed a protein stability index of 0.61 ± 0.045.
For ACRPRPPLSRSP, the protein stability index was 0.739 ± 0.032.
With ACSTALPFSFAS the protein stability index was 0.689 ± 0.0074.
ACVSWLPVPRQS gave a protein stability index of 0.6964 ± 0.0062.
ADGLVGLLLSVV gave a protein stability index of 0.62 ± 0.024.
For ADMLETFSVHLG, the protein stability index was 0.666 ± 0.011.
Sequence ADVWSCAFCFDC has a protein stability index of 0.595 ± 0.033.
In the case of AEGGGWSFELEG, the protein stability index is reported as 0.746 ± 0.02.
With AFCVSVLVGLGG the protein stability index was 0.487 ± 0.052.
AFFVAFLPLLSR was tested, and the protein stability index was 0.552 ± 0.031.
In the case of AFLPLYFLEGVL, the protein stability index is reported as 0.702 ± 0.024.
Sequence AFLTSYHPPPLP has a protein stability index of 0.69 ± 0.059.
For AFNRYASRIQEV, the protein stability index was 0.695 ± 0.02.
AFPLFTDLTRVP gave a protein stability index of 0.7692 ± 0.0066.
For AFPPVIPALFSV, the protein stability index was 0.697 ± 0.027.
Sequence AFRGRGAFKYCL has a protein stability index of 0.683 ± 0.1.
AFSLRGRSVMFY gave a protein stability index of 0.688 ± 0.025.
AFTLQSRLSSPS showed a protein stability index of 0.655 ± 0.012.
For AFVEGMAYLLII, the protein stability index was 0.524 ± 0.017.
AGAGLGVVLGWW showed a protein stability index of 0.684 ± 0.017.
With AGCVLDGRGVVA the protein stability index was 0.615 ± 0.074.
In the case of AGGGGGRGSAGA, the protein stability index is reported as 0.711 ± 0.011.
AGGGGGVTASGA was tested, and the protein stability index was 0.71 ± 0.063.
For AGGGGRLTRSRA, the protein stability index was 0.691 ± 0.087.
Work on AGGGHCVGMGVG yielded a protein stability index of 0.642 ± 0.037.
For AGGPRVRGAAGR, the protein stability index was 0.698 ± 0.055.
AGKYCCFMVFVV gave a protein stability index of 0.649 ± 0.033.
AGLESFFHYSYF showed a protein stability index of 0.7487 ± 0.0002.
AGLIRDAVILIG showed a protein stability index of 0.631 ± 0.021.
In the case of AGLTGSREGWRG, the protein stability index is reported as 0.638 ± 0.041.
AGPGSSSTNHES showed a protein stability index of 0.585 ± 0.015.
Sequence AGPPRGVCARWC has a protein stability index of 0.635 ± 0.011.
AGRGRGPRSAGS showed a protein stability index of 0.657 ± 0.014.
AGRRVPVMMYGS showed a protein stability index of 0.691 ± 0.022.
Sequence AGRVGGFFFVVA has a protein stability index of 0.608 ± 0.017.
With AGSCRCRTCCLV the protein stability index was 0.61354 ± 0.00038.
Sequence AGSLCSVVFFSG has a protein stability index of 0.688 ± 0.23.
Work on AGSQEDGRSIKG yielded a protein stability index of 0.669 ± 0.024.
With AGSRGIVREIVL the protein stability index was 0.68 ± 0.052.
In the case of AGVASTETREGG, the protein stability index is reported as 0.685 ± 0.0073.
In the case of AGVGLAETAGDD, the protein stability index is reported as 0.677 ± 0.016.
With AGVGMGAVAGGS the protein stability index was 0.705 ± 0.02.
In the case of AGWGRRRLDGGR, the protein stability index is reported as 0.684 ± 0.02.
With AHFSRRSSSSVS the protein stability index was 0.7 ± 0.02.
AHLLLRPPLVAH gave a protein stability index of 0.486 ± 0.029.
For AHPLSPLSSPLR, the protein stability index was 0.682 ± 0.081.
In the case of AHVDWRLPEPNR, the protein stability index is reported as 0.7172 ± 0.0069.
AIGAVEGGRMRE gave a protein stability index of 0.5748 ± 0.0048.
AIQNSNLNTKVR gave a protein stability index of 0.675 ± 0.033.
Sequence AIVWGVGCGSVG has a protein stability index of 0.738 ± 0.12.
With AKLNQLMSKSQI the protein stability index was 0.678 ± 0.02.
AKRRELKCRVNL was tested, and the protein stability index was 0.674 ± 0.0087.
Sequence AKSRQRKNGRTG has a protein stability index of 0.708 ± 0.026.
AKYPAQASTEPL showed a protein stability index of 0.702 ± 0.028.
With ALALCLVFFFSI the protein stability index was 0.574 ± 0.065.
ALAYSLQRSPRV gave a protein stability index of 0.616 ± 0.045.
With ALESHFMVPSFP the protein stability index was 0.693 ± 0.043.
ALGHAKDSVYGM gave a protein stability index of 0.679 ± 0.041.
ALGRWAVSCNRG showed a protein stability index of 0.71 ± 0.11.
Sequence ALLFCVCCGFFF has a protein stability index of 0.541 ± 0.013.
Work on ALPGHFCVSFLP yielded a protein stability index of 0.752 ± 0.033.
In the case of ALPPPRPPPPSP, the protein stability index is reported as 0.692 ± 0.034.
For ALRAGGRPYSVS, the protein stability index was 0.716 ± 0.014.
ALRGESWKSKQG gave a protein stability index of 0.664 ± 0.13.
ALSRLLPPRPPV was tested, and the protein stability index was 0.608 ± 0.027.
ALTWVGEGLRGS showed a protein stability index of 0.699 ± 0.027.
In the case of ALYQNWITITRN, the protein stability index is reported as 0.657 ± 0.022.
Work on AMGIPLLTTHFI yielded a protein stability index of 0.674 ± 0.064.
AMPLPPPTPPRS gave a protein stability index of 0.627 ± 0.027.
In the case of ANHRPCIPPPPR, the protein stability index is reported as 0.657 ± 0.073.
In the case of APACVAGGGQRL, the protein stability index is reported as 0.681 ± 0.081.
In the case of APAFLSLVSFAS, the protein stability index is reported as 0.673 ± 0.017.
Sequence APAPAPARTPTR has a protein stability index of 0.683 ± 0.016.
With APAPSLPTSGEL the protein stability index was 0.701 ± 0.092.
With APDRGWAEGQCS the protein stability index was 0.727 ± 0.018.
Work on APGGACINIQLM yielded a protein stability index of 0.663 ± 0.044.
In the case of APHPTPYVRRHC, the protein stability index is reported as 0.74 ± 0.041.
Work on APLRAPYPPPPY yielded a protein stability index of 0.7153 ± 0.0014.
For APLRSSCVFLFP, the protein stability index was 0.744 ± 0.17.
APLSRPLRLPHP gave a protein stability index of 0.692 ± 0.022.
For APPCILCLFPAC, the protein stability index was 0.716 ± 0.024.
For APPLPPSPPSAR, the protein stability index was 0.729 ± 0.11.
For APPLPSAPPPPR, the protein stability index was 0.668 ± 0.031.
APPPGSTFVSCE gave a protein stability index of 0.674 ± 0.045.
APPPLPLPPPAP showed a protein stability index of 0.705 ± 0.033.
APPPLPSPRPAA showed a protein stability index of 0.699 ± 0.04.
Sequence APPPPPPPPSFP has a protein stability index of 0.687 ± 0.055.
Work on APPPRPLKLFPP yielded a protein stability index of 0.611 ± 0.028.
APPPRSPPPTPH showed a protein stability index of 0.696 ± 0.012.
Work on APPRPHTPLPRP yielded a protein stability index of 0.75 ± 0.07.
With APPRSPRSLPPL the protein stability index was 0.658 ± 0.013.
Work on APPVILPPSGPP yielded a protein stability index of 0.654 ± 0.028.
APPVPLWVNPRT showed a protein stability index of 0.7 ± 0.025.
For APQTELTGVLFG, the protein stability index was 0.685 ± 0.0071.
Work on APSCPKSLTFLD yielded a protein stability index of 0.734 ± 0.035.
Work on APSLLAPPPLRP yielded a protein stability index of 0.674 ± 0.017.
APSLPPRLPWLY showed a protein stability index of 0.737 ± 0.015.
For APSPPSHPAAIP, the protein stability index was 0.741 ± 0.042.
APSPPVPTGPRP showed a protein stability index of 0.664 ± 0.059.
In the case of APSTPTPPPPPP, the protein stability index is reported as 0.686 ± 0.042.
For APVQLDNKVVLM, the protein stability index was 0.699 ± 0.04.
APWSVSAGCFLF was tested, and the protein stability index was 0.687 ± 0.036.
Work on AQTVNNALAKPI yielded a protein stability index of 0.6551 ± 0.0049.
Sequence ARAEDLLVFLPL has a protein stability index of 0.691 ± 0.039.
AREGARVVPVGR gave a protein stability index of 0.717 ± 0.014.
In the case of AREGGGRAGRRE, the protein stability index is reported as 0.729 ± 0.021.
Work on ARGRAVRAAGAS yielded a protein stability index of 0.688 ± 0.088.
Work on ARIECLIFPGCK yielded a protein stability index of 0.626 ± 0.022.
For ARKCPLLYGPMA, the protein stability index was 0.662 ± 0.04.
ARKDVTRKSSND showed a protein stability index of 0.665 ± 0.064.
With ARLGKASYSVFS the protein stability index was 0.729 ± 0.027.
Work on ARNVDNIGYENS yielded a protein stability index of 0.698 ± 0.013.
With ARRAPTFFSLWR the protein stability index was 0.658 ± 0.049.
ARRAVPGRGCEV showed a protein stability index of 0.683 ± 0.066.
For ARRGIVQSRCNW, the protein stability index was 0.684 ± 0.064.
For ARRRINKKIKKV, the protein stability index was 0.554 ± 0.018.
ARVAGECRCGRT gave a protein stability index of 0.6554 ± 0.00095.
ASAGTVYLTLLP gave a protein stability index of 0.697 ± 0.072.
With ASFMSPPSAPLA the protein stability index was 0.6953 ± 0.0047.
ASGGGPLGNSSR was tested, and the protein stability index was 0.684 ± 0.043.
ASGPLPPHPIAD gave a protein stability index of 0.677 ± 0.011.
In the case of ASKKSVVFKQKT, the protein stability index is reported as 0.6586 ± 0.0013.
With ASLGPCLPLSLN the protein stability index was 0.695 ± 0.03.
ASPAASSPYGTR was tested, and the protein stability index was 0.733 ± 0.051.
ASPAIDSETSEY showed a protein stability index of 0.686 ± 0.16.
With ASPFCRPNRHLL the protein stability index was 0.648 ± 0.031.
ASPLYPRPPVRG was tested, and the protein stability index was 0.651 ± 0.014.
ASPSSAAQPLSP was tested, and the protein stability index was 0.641 ± 0.099.
ASSPLFLPAIQP gave a protein stability index of 0.63 ± 0.06.
Work on ASTPLPTSPPPP yielded a protein stability index of 0.66 ± 0.036.
ASVIWGGFSDSR showed a protein stability index of 0.719 ± 0.015.
ASVTSKSNCSGI gave a protein stability index of 0.663 ± 0.037.
In the case of ASYFPLRLLGFL, the protein stability index is reported as 0.65 ± 0.051.
Work on ATDWPELFLPFG yielded a protein stability index of 0.666 ± 0.007.
In the case of ATILILHTSPQF, the protein stability index is reported as 0.655 ± 0.041.
For AVAIGQGLSAGV, the protein stability index was 0.686 ± 0.053.
For AVCGPHLYPRVI, the protein stability index was 0.643 ± 0.022.
For AVCSLLVYAPDR, the protein stability index was 0.652 ± 0.059.
Sequence AVGLCGARSLGG has a protein stability index of 0.634 ± 0.048.
With AVGPAGSQATIC the protein stability index was 0.706 ± 0.1.
With AVGPLTGPRPPV the protein stability index was 0.699 ± 0.073.
AVGSAGRGRLGI gave a protein stability index of 0.673 ± 0.0078.
AVGVRSSGRVSI showed a protein stability index of 0.7246 ± 0.0034.
